Data on 4 substances can be found in patent publication US20060160994A1.

The target of test [1] is LRP exposed on the surface of mouse fibroblast (C127) cells (mouse (mouse fibroblast cells)) (UniProt Q91ZX7). Kind of test: cell-based or functional assay.
Test [2] has as its target low density lipoprotein receptor-related protein (LRP), purified and immobilized (UniProt Q07954). As to the kind of experiment: SPR, LRP immobilized (8.3 fmol/mm^2), analyte 100 nM, corrected for nonspecific binding.

Chain of LRP exposed on the surface of mouse fibroblast (C127) cells (mouse (mouse fibroblast cells)) (Q91ZX7 20-4545): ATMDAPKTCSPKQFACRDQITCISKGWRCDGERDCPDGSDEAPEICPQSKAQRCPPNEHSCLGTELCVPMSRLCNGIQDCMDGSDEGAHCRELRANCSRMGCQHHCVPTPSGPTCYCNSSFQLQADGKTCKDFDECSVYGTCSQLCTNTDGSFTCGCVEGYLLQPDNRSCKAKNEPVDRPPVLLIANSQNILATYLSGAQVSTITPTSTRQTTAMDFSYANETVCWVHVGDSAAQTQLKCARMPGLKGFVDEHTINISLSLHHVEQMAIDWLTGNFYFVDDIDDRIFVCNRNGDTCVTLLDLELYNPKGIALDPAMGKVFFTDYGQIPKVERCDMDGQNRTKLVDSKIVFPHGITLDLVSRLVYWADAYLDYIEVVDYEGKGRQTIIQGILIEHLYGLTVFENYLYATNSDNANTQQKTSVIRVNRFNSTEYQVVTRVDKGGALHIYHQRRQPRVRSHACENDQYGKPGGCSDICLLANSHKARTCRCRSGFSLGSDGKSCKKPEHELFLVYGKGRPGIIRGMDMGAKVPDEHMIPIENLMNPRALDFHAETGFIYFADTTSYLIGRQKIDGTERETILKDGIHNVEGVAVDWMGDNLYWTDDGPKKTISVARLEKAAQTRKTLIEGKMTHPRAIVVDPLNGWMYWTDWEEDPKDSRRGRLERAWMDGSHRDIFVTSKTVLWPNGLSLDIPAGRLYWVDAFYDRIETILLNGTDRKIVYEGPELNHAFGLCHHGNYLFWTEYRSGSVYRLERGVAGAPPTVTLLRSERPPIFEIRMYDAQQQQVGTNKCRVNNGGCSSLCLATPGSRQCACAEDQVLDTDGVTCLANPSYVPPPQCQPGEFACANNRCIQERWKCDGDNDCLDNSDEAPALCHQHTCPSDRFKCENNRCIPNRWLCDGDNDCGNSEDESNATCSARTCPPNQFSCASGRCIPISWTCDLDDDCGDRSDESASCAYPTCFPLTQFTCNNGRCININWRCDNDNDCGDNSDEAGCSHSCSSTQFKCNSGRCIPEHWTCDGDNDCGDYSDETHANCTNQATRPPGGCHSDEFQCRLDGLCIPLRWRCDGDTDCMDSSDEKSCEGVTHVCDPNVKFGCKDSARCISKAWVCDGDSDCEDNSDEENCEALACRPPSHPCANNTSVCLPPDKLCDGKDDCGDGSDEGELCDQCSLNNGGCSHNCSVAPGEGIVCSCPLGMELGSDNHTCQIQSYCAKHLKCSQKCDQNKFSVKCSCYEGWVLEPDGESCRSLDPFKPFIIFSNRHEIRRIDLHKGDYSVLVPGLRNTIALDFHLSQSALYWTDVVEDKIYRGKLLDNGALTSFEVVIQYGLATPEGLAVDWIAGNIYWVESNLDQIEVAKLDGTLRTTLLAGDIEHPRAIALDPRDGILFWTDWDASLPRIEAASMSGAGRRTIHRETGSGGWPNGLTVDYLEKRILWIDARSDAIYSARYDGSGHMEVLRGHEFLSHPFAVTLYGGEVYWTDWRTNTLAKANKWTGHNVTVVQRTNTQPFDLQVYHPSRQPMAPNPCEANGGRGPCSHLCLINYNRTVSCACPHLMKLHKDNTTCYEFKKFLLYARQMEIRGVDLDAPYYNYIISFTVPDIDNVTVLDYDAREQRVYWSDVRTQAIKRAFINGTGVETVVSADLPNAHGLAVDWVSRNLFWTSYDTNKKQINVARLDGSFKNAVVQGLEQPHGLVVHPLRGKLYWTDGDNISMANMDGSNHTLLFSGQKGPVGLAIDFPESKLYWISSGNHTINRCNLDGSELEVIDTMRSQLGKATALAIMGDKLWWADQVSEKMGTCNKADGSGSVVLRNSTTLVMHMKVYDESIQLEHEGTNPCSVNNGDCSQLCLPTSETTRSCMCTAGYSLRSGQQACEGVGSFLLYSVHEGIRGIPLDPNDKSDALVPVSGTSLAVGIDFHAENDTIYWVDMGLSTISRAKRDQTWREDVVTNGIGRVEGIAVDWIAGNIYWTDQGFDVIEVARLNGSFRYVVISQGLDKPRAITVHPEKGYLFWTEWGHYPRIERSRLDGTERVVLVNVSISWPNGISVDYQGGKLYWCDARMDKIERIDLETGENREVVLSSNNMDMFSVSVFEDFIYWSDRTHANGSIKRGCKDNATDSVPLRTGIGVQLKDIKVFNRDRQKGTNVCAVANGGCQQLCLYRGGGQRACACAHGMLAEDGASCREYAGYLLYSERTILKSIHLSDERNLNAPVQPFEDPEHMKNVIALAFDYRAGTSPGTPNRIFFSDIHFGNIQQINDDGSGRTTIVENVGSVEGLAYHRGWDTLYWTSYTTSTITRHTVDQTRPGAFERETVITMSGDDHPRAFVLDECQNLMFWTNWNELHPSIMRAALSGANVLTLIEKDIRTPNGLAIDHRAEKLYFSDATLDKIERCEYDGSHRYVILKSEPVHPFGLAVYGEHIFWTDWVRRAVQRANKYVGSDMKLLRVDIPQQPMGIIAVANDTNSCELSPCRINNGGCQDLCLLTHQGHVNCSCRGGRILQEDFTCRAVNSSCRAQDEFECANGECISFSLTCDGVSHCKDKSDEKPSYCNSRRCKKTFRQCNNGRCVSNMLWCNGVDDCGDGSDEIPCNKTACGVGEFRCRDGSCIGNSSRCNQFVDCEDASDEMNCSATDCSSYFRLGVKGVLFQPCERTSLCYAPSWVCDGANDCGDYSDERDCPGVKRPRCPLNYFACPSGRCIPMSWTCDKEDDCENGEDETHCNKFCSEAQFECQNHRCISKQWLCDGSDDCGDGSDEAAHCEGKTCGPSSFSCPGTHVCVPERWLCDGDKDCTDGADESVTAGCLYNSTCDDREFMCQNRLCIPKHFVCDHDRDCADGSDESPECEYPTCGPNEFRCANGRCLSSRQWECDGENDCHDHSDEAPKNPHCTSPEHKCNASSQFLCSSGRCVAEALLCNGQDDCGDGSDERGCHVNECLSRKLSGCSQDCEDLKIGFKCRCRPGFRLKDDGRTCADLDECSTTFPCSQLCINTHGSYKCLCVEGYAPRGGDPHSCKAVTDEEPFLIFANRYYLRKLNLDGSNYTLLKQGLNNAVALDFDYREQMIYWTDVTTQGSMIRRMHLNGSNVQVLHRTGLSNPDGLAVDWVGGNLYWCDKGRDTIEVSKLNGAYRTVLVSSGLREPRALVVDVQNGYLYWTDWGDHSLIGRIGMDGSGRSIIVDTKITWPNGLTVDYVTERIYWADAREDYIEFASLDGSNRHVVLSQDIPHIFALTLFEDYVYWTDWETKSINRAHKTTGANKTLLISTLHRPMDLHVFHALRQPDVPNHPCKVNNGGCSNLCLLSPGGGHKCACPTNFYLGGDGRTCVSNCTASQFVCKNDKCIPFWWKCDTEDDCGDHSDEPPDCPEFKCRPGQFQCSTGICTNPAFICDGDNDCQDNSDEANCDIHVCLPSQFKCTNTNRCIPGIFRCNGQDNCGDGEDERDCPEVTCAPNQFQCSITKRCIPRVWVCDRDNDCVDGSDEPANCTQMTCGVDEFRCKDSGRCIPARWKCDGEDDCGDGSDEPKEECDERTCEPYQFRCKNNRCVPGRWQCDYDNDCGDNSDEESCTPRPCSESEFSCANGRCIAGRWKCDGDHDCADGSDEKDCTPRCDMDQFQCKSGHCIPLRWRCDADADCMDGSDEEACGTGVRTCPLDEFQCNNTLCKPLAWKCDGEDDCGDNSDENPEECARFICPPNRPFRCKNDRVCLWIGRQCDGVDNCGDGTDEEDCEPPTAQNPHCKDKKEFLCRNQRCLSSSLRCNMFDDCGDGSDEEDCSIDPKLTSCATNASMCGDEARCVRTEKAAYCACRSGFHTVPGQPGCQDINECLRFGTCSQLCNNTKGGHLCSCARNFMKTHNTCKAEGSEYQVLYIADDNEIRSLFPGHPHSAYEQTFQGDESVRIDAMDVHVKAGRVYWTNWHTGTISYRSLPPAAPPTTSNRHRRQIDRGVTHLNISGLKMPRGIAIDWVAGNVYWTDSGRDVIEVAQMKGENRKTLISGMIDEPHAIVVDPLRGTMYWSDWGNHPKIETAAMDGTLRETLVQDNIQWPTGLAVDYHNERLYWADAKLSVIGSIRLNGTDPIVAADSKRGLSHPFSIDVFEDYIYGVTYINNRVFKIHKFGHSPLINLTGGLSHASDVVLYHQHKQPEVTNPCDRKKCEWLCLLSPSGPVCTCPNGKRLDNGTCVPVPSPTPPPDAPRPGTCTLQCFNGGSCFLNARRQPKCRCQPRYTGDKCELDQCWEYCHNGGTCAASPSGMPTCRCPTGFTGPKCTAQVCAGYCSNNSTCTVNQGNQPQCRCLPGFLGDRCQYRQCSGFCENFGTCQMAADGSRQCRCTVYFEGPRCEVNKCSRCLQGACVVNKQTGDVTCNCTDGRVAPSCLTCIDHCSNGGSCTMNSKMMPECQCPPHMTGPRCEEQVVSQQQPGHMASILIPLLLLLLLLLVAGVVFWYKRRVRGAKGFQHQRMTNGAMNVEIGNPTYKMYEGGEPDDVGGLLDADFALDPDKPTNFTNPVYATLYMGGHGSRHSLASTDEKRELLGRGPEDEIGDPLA

For “normal Factor VIII (produced by stably transfected mouse fibroblast C127 cells) (from UniProt P00451 20-2351)”, in test [1], the Ratio +RAP/-RAP of Factor VIII expression (U/L) in medium of C127 cells, 2 h was 3.2 and the Ratio +RAP/-RAP of Factor VIII expression (U/L) in medium of C127 cells, 3 h amounted to 2.3.

Substance “thrombin-activated Factor VIII (from UniProt P00451 20-391; P00451 392-759; P00451 1709-2351)” showed a Binding (resonance units) (resonance units) in test [2] of 446.

In test [2], “heavy chain of Factor VIII (from UniProt P00451 20-1667)” returned a Binding (resonance units) (resonance units) of 0.

The substance “Factor VIII, P00451 20-1667; P00451 1668-2351” returned a Binding (resonance units) (resonance units) in test [2] of 262.
